{"source": "patent US20180155451A1", "about": "(published 2018)", "assay_in_all_cases": "SPR (Biacore); KD of H240-Kn061/H240-Hl071/L73-k0 divided by KD of the variant", "key": {"[1]": {"molecular_target": "T1, FcgRIIIa F (human, UniProt P08637 17-208)", "T1 construct": "extracellular domain; also called FcγRIIIa F; 3aF; not shown: His tag attached to the C terminus", "T1 sequence (P08637 17-208)": "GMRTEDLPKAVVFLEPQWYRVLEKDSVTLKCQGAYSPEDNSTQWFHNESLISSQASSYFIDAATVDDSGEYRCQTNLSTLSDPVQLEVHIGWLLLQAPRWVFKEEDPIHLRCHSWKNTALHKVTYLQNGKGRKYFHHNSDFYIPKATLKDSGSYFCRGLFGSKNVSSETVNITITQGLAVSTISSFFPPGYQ", "experimental": "(§1) The antibodies were assessed for the binding to each FcgR. […] The resultant value was defined as relative KD, and used as an assessment indicator.\n(§2) Analysis of interaction between obj ective antibody and the FcγR was carried out using Biacore T100 (GE Healthcare), Biacore T200, Biacore A100, and Biacore 4000. HBS-EP+ (GE Healthcare) was used as the running buffer, and the measurement temperature was set to 25° C. Chips produced by immobilizing the antigen peptide by the amine coupling method to a Series S sensor Chip CM5 (GE Healthcare), chips produced by allowing preliminarily biotinylated antigen peptides to interact with and immobilize onto a Series S Sensor Chip SA (certified) (GE Healthcare), chips produced by immobilizing Protein L (ACTIGEN, BioVision) to Series S Sencor Chip CM5 (GE Healthcare), or chips produced by immobilizing Protein A/G (Thermo Scientific) to Series S Sencor Chip CM5 (GE Healthcare) were used. Antibodies of interest were captured onto these chips, and allowed to interact to each FcγR diluted with running buffer."}, "[2]": {"molecular_target": "T2, FcgRIIa R (human, UniProt P12318 34-217)", "T2 construct": "extracellular domain; also called FcγRIIa R; FcγRIIa type R; not shown: His tag attached to the C terminus", "T2 sequence (looked up)": "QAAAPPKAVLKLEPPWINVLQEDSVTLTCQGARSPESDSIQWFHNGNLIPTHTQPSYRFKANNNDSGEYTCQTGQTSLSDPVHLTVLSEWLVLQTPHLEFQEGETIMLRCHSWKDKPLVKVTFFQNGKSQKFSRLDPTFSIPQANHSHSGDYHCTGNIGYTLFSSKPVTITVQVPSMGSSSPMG", "experimental": "as §1, §2"}, "[3]": {"molecular_target": "T3, FcgRIIa H (human, UniProt P12318 34-217)", "T3 construct": "extracellular domain; also called FcγRIIa H; FcγRIIa type H; not shown: His tag attached to the C terminus", "T3 sequence (looked up)": "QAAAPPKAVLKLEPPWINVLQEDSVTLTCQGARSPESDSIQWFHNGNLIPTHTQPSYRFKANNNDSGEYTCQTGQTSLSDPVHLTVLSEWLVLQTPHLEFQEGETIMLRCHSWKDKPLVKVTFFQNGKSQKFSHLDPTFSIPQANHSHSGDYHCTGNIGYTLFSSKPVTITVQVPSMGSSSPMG", "experimental": "as §1, §2"}, "[4]": {"molecular_target": "T4, FcgRIIb (human, UniProt P31994 43-217)", "T4 construct": "extracellular domain; also called FcγRIIb; not shown: His tag attached to the C terminus", "T4 sequence (looked up)": "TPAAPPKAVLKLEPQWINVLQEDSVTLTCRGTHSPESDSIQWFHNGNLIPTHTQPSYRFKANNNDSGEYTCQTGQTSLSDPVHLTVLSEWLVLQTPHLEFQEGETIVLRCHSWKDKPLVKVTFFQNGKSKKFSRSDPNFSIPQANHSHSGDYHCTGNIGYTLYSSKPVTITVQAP", "experimental": "as §1, §2"}, "[5]": {"molecular_target": "T5, FcgRIIIa V (human, UniProt P08637 17-208)", "T5 construct": "extracellular domain; also called FcγRIIIa V; not shown: His tag attached to the C terminus", "T5 sequence (P08637 17-208 F176V limits assumed)": "as the sequence (P08637 17-208) above, with F160V counted along it", "experimental": "as §1, §2"}, "[6]": {"molecular_target": "T1, FcgRIIIa F", "remark": "listed apart in the source"}, "[7]": {"molecular_target": "T4, FcgRIIb", "remark": "listed apart in the source"}, "[8]": {"molecular_target": "T5, FcgRIIIa V", "remark": "listed apart in the source"}}, "note": "Where two headings read alike, the source gives them in different places.", "data": [{"binder": "H240-Kn061 (Y235A)/H240-Hl071/L73-k0 (antibody, human IgG1, kappa) heavy 1: QDQLVQSGAEVKKPGASVKVSCKASGFNIKDTYIQWVRQAPGQGLEWMGRIDPLRKQTKYREKFEGRVTITADTSTNTAYMELSSLRSEDTAVYYCVRSGREFDYWGQGTLVTVSSASTKGPSVFPLAPSSKSTSGGTAALGCLVKDYFPEPVTVSWNSGALTSGVHTFPAVLQSSGLYSLSSVVTVPSSSLGTQTYICNVNHKPSNTKVDKKVEPKSCDKTHTCPPCPAPEYAWGPSVFLFPPKPKDTLMISRTPEVTCVVVDVSDEDPEVKFNWYVDGVEVHNAKTKPREEQYNATYRVVSVLTVLHQDWLNGKEYKCKVSNKALPAPIEKTISKAKGQPREPQVCTLPPSRDELTKNQVSLWCLVKGFYPSDIAVEWESNGQPENNYKTTPPVLDSDGSFFLYSKLTVDKSRWQQGNVFSCSVMHEALHNHYTQKSLSLSP heavy 2: QDQLVQSGAEVKKPGASVKVSCKASGFNIKDTYIQWVRQAPGQGLEWMGRIDPLRKQTKYREKFEGRVTITADTSTNTAYMELSSLRSEDTAVYYCVRSGREFDYWGQGTLVTVSSASTKGPSVFPLAPSSKSTSGGTAALGCLVKDYFPEPVTVSWNSGALTSGVHTFPAVLQSSGLYSLSSVVTVPSSSLGTQTYICNVNHKPSNTKVDKKVEPKSCDKTHTCPPCPAPELLGGPSVFLFPPKPKDTLMISRTPEVTCVVVDVSHEDPEVKFNWYVDGVEVHNAKTKPREEQYNSTYRVVSVLTVLHQDWLNGKEYKCKVSNDALPMPIEETISKAKGQPREPQVYTLPPSRCELTKNQVSLSCAVKGFYPSDIAVEWESNGQPENNYKTTPPVLDSDGSFFLVSKLTVDKSRWQQGNVFSCSVMHEALHNHYTQKSLSLSP light: DIQMTQSPSSLSASVGDRVTITCRASQDIHKYIAWYQQKPGQAPRLLIQYTSTLQPGVPSRFSGSGSGTDYTFTISSLQPEDIATYYCLQYEQLRTFGGGTKVEIKRTVAAPSVFIFPPSDEQLKSGTASVVCLLNNFYPREAKVQWKVDNALQSGNSQESVTEQDSKDSTYSLSSTLTLSKADYEKHKVYACEVTHQGLSSPVTKSFNRGEC", "values": [{"measurement": "Relative KD", "setting": "[1]", "result": 1.2}, {"measurement": "Relative KD", "setting": "[2]", "result": 0.5}, {"measurement": "Relative KD", "setting": "[3]", "result": 0.5}, {"measurement": "Relative KD", "setting": "[4]", "result": 0.2}, {"measurement": "Relative KD", "setting": "[5]", "result": 1.3}, {"measurement": "Relative KD", "setting": "[6]", "result": 1.2}, {"measurement": "Relative KD", "setting": "[7]", "result": 0.2}, {"measurement": "Relative KD", "setting": "[8]", "result": 1.3}]}, {"binder": "H240-Kn061 (Y234E)/H240-Hl071/L73-k0 (antibody, human IgG1, kappa) heavy 1: QDQLVQSGAEVKKPGASVKVSCKASGFNIKDTYIQWVRQAPGQGLEWMGRIDPLRKQTKYREKFEGRVTITADTSTNTAYMELSSLRSEDTAVYYCVRSGREFDYWGQGTLVTVSSASTKGPSVFPLAPSSKSTSGGTAALGCLVKDYFPEPVTVSWNSGALTSGVHTFPAVLQSSGLYSLSSVVTVPSSSLGTQTYICNVNHKPSNTKVDKKVEPKSCDKTHTCPPCPAPEEYWGPSVFLFPPKPKDTLMISRTPEVTCVVVDVSDEDPEVKFNWYVDGVEVHNAKTKPREEQYNATYRVVSVLTVLHQDWLNGKEYKCKVSNKALPAPIEKTISKAKGQPREPQVCTLPPSRDELTKNQVSLWCLVKGFYPSDIAVEWESNGQPENNYKTTPPVLDSDGSFFLYSKLTVDKSRWQQGNVFSCSVMHEALHNHYTQKSLSLSP heavy 2: QDQLVQSGAEVKKPGASVKVSCKASGFNIKDTYIQWVRQAPGQGLEWMGRIDPLRKQTKYREKFEGRVTITADTSTNTAYMELSSLRSEDTAVYYCVRSGREFDYWGQGTLVTVSSASTKGPSVFPLAPSSKSTSGGTAALGCLVKDYFPEPVTVSWNSGALTSGVHTFPAVLQSSGLYSLSSVVTVPSSSLGTQTYICNVNHKPSNTKVDKKVEPKSCDKTHTCPPCPAPELLGGPSVFLFPPKPKDTLMISRTPEVTCVVVDVSHEDPEVKFNWYVDGVEVHNAKTKPREEQYNSTYRVVSVLTVLHQDWLNGKEYKCKVSNDALPMPIEETISKAKGQPREPQVYTLPPSRCELTKNQVSLSCAVKGFYPSDIAVEWESNGQPENNYKTTPPVLDSDGSFFLVSKLTVDKSRWQQGNVFSCSVMHEALHNHYTQKSLSLSP light: DIQMTQSPSSLSASVGDRVTITCRASQDIHKYIAWYQQKPGQAPRLLIQYTSTLQPGVPSRFSGSGSGTDYTFTISSLQPEDIATYYCLQYEQLRTFGGGTKVEIKRTVAAPSVFIFPPSDEQLKSGTASVVCLLNNFYPREAKVQWKVDNALQSGNSQESVTEQDSKDSTYSLSSTLTLSKADYEKHKVYACEVTHQGLSSPVTKSFNRGEC", "values": [{"measurement": "Relative KD", "setting": "[1]", "result": 1.9}, {"measurement": "Relative KD", "setting": "[2]", "result": 1.4}, {"measurement": "Relative KD", "setting": "[3]", "result": 0.7}, {"measurement": "Relative KD", "setting": "[4]", "result": 0.5}, {"measurement": "Relative KD", "setting": "[5]", "result": 1.6}, {"measurement": "Relative KD", "setting": "[6]", "result": 1.9}, {"measurement": "Relative KD", "setting": "[7]", "result": 0.5}, {"measurement": "Relative KD", "setting": "[8]", "result": 1.6}]}, {"binder": "H240-Kn061/H240-Hl071 (V240H)/L73-k0 (antibody, human IgG1, kappa) heavy 1: QDQLVQSGAEVKKPGASVKVSCKASGFNIKDTYIQWVRQAPGQGLEWMGRIDPLRKQTKYREKFEGRVTITADTSTNTAYMELSSLRSEDTAVYYCVRSGREFDYWGQGTLVTVSSASTKGPSVFPLAPSSKSTSGGTAALGCLVKDYFPEPVTVSWNSGALTSGVHTFPAVLQSSGLYSLSSVVTVPSSSLGTQTYICNVNHKPSNTKVDKKVEPKSCDKTHTCPPCPAPEYYWGPSVFLFPPKPKDTLMISRTPEVTCVVVDVSDEDPEVKFNWYVDGVEVHNAKTKPREEQYNATYRVVSVLTVLHQDWLNGKEYKCKVSNKALPAPIEKTISKAKGQPREPQVCTLPPSRDELTKNQVSLWCLVKGFYPSDIAVEWESNGQPENNYKTTPPVLDSDGSFFLYSKLTVDKSRWQQGNVFSCSVMHEALHNHYTQKSLSLSP heavy 2: QDQLVQSGAEVKKPGASVKVSCKASGFNIKDTYIQWVRQAPGQGLEWMGRIDPLRKQTKYREKFEGRVTITADTSTNTAYMELSSLRSEDTAVYYCVRSGREFDYWGQGTLVTVSSASTKGPSVFPLAPSSKSTSGGTAALGCLVKDYFPEPVTVSWNSGALTSGVHTFPAVLQSSGLYSLSSVVTVPSSSLGTQTYICNVNHKPSNTKVDKKVEPKSCDKTHTCPPCPAPELLGGPSHFLFPPKPKDTLMISRTPEVTCVVVDVSHEDPEVKFNWYVDGVEVHNAKTKPREEQYNSTYRVVSVLTVLHQDWLNGKEYKCKVSNDALPMPIEETISKAKGQPREPQVYTLPPSRCELTKNQVSLSCAVKGFYPSDIAVEWESNGQPENNYKTTPPVLDSDGSFFLVSKLTVDKSRWQQGNVFSCSVMHEALHNHYTQKSLSLSP light: DIQMTQSPSSLSASVGDRVTITCRASQDIHKYIAWYQQKPGQAPRLLIQYTSTLQPGVPSRFSGSGSGTDYTFTISSLQPEDIATYYCLQYEQLRTFGGGTKVEIKRTVAAPSVFIFPPSDEQLKSGTASVVCLLNNFYPREAKVQWKVDNALQSGNSQESVTEQDSKDSTYSLSSTLTLSKADYEKHKVYACEVTHQGLSSPVTKSFNRGEC", "values": [{"measurement": "Relative KD", "setting": "[1]", "result": 1.3}, {"measurement": "Relative KD", "setting": "[2]", "result": 0.7}, {"measurement": "Relative KD", "setting": "[3]", "result": 0.8}, {"measurement": "Relative KD", "setting": "[4]", "result": 0.3}, {"measurement": "Relative KD", "setting": "[5]", "result": 1}]}]}
